Measurements from the RNAGym collection of RNA variant scans (doi:10.1093/molbev/msab373).

B1: Azoarcus group I ribozyme (parent)
chain: GUGCCUUGCGCCGGGAAACCACGCAAGGGAUGGUGUCAAAUUCGGCGAAACCUAAGCGCCCGCCCGGGCGUAUGGCAACGCCGAGCCAAGCUUCGGCGCCUGCGCCGAUGAAGGUGUAGAGACUAGACGGCACCCACCUAAGGCAAACGCUAUGGUGAAGGCAUAGUCCAGGGAGUGGCGAAAGUCACACAAACCGG

Variants of: B1
Experiment: reverse-splicing fitness (ratio to wild type); higher = more active; in vitro selection; Mg2+ level not given
Procedure, shortened: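 An in vitro group I ribozyme library with randomized positions was T7-transcribed and gel-purified. In triplicate, 10 pmol RNA in EPPS pH 7.5 was reacted with 50 pmoles of a 30-nt RNA substrate for 1 h at 37 °C across several added MgCl2 levels (1–48 mM), then stopped with EDTA. Products were reverse transcribed from a substrate-complementary primer, PCR-amplified and sequenced (HiSeq 4000). Fitness is a variant's read proportion after selection over that before, normalised to wild type.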

In order of rising reverse-splicing fitness:
1. C82G A111G A120U A145C C150A C169A U176A  0.00209
2. C82G A111G A120U A145C C150A C169A U176C  0.00213
3. C82G A111G A120U A145C C150A C169A  0.00228
4. C82G A111G A120G A145U C169U U176G  0.00384
5. C82G A111G A120G A145U C169A U176G  0.00446
6. C82G A111G A120G A145G C169G U176G  0.0045
7. C82G A111G A120G A145U C150U C169G U176G  0.00518
8. C82G A111G A120G A145G C169U U176G  0.00529
9. C82G A111G A120G A145U C150A U176G  0.00563
10. C82G A111G A120G C150G C169A U176G  0.00685
11. C82G A111G A120G A145U C150G  0.00774
12. C82G A111G A120G A145U C150G C169G  0.00827
13. C82G A111G A120G C150U C169U U176G  0.00864
14. C82G A111G A120G A145U C150A  0.00906
15. C82G A111G A120G C150A C169U U176G  0.00912
16. C82G A111G A120G A145U C150G C169U  0.00943
17. C82G A111G A120G A145U C150G C169A  0.01
18. C82G A111G A120G C150G C169A U176A  0.0118
19. C82G A111G A120G C169A  0.0124
20. C82G A111G A120G C150G C169A U176C  0.0135
21. C82G A111G A120G A145U C150A U176A  0.014
22. C82G A111G A120G C169U  0.0144
23. C82G A111G A120G A145U C169A U176A  0.0151
24. C82G A111G A120G A145U C169A U176C  0.0152
25. C82G A111G A120G A145U C150U  0.0155
26. C82G A111G A120G A145U C150U C169G U176A  0.0161
27. C82G A111G A120G A145U C169U U176C  0.0161
28. C82G A111G A120G C150U C169U U176C  0.0174
29. C82G A111G A120G C150A C169U U176C  0.0176
30. C82G A111G A120G A145U C150U C169G U176C  0.0179
31. C82G A111G A120G A145G C169G U176A  0.0184
32. C82G A111G A120G A145G C169U U176A  0.0188
33. C82G A111G A120G C150U C169U U176A  0.0189
34. C82G A111G A120G A145G C169U U176C  0.019
35. C82G A111G A120G A145U C150A U176C  0.0191
36. C82G A111G A120G A145U C169U U176A  0.0191
37. C82G A111G A120G A145U  0.0198
38. C82G A111G A120G C150A C169U U176A  0.021
39. C82G A111G A120G C169G  0.0219
40. C82G A111G A120G C169A U176C  0.0232
41. C82G A111G A120G A145G C169G U176C  0.0248
42. C82G A111G A120U A145C  0.0668
